In publication PMC4703882:

System: RAD51 wild type (Homo sapiens)
Assay: EMSA
Details: 1 mM ATP, 2 mM Ca2+; saturated at 0.8 uM; EMSA: 50 mM Tris-HCl pH 7.5, 100 mM NaCl, 2 mM CaCl2, 1 mM ATP, 1 mM DTT, 5 nM DNA, 5 min at 37 C; 0.8% agarose in 1x TB (dsDNA) or 5% native PAGE in 0.5x TB …

ds-66 bp-AF532
K half: 300 nM
